No end group written: not given here. *: point of attachment. Biotin = O=C1N[C@H]2[C@H](CS[C@H]2CCCCC(=O)*)N1
B1: fetuin (other)
chain: IPLDPVAGYKEPACDDPDTEQAALAAVDYINKHLPRGYKHTLNQIDSVKVWPRRPTGEVYDIEIDTLETTCHVLDPTPLANCSVRQQTQHAVEGDCDIHVLKQDGQFSVLFTKCDSSPDSAEDVRKLCPDCPLLAPLNDSRVVHAVEVALATFNAESNGSYLQLVEISRAQFVPLPVSVSVEFAVAATDCIAKEVVDPTKCNLLAEKQYGFCKGSVIQKALGGEDVRVTCTLFQTQPVIPQPQPDGAEAEAPSAVPDAAGPTPSAAGPPVASVVVGPSVVAVPLPLHRAHYDLRHTFSGVASVESSSGEAFHVGKTPIVGQPSIPGGPVRLCPGRIRYFKI
modifications: sialylated glycans (multiple copies of the αNeu5Ac(2→3)βGal(1→4)βGlc- structure)

How the values were obtained:
[1] = target: fetuin (Bos taurus (Bovine)) (UniProt P12763); assay: inhibition ELISA; competitor MAL-biotin on coated fetuin; peptide 4.4 mg/mL
[2] = target: fetuin (Bos taurus (Bovine)) (UniProt P12763); assay: inhibition ELISA; competitor WGA-biotin on coated fetuin; peptide 4.4 mg/ml (repeats Table II)
[3] = target: fetuin (Bos taurus (Bovine)) (UniProt P12763); assay: inhibition ELISA; competitor SNA-biotin on coated fetuin; peptide 4.4 mg/mL
[4] = target: fetuin (Bos taurus (Bovine)) (UniProt P12763); assay: inhibition ELISA; competitor SNA-biotin on coated fetuin; peptide 4.4 mg/ml (Table II prints -2 ± 2)
[5] = target: fetuin (Bos taurus (Bovine)) (UniProt P12763); assay: inhibition ELISA; competitor ACS2P1-biotin on coated fetuin; peptide 5520 µM
[6] = target: asialofetuin (Bos taurus (Bovine)) (UniProt P12763); assay: inhibition ELISA; competitor ACS2P1-biotin on coated asialofetuin; peptide 5520 µM
[7] = target: fetuin (Bos taurus (Bovine)) (UniProt P12763); assay: inhibition ELISA; competitor MAL-biotin on coated fetuin; peptide 4.4 mg/ml (repeats Table II)
[8] = target: fetuin (Bos taurus (Bovine)) (UniProt P12763); assay: inhibition ELISA; competitor PT-biotin on coated fetuin; peptide 4.4 mg/ml (repeats Table II)
[9] = target: asialofetuin (Bos taurus (Bovine)) (UniProt P12763); assay: inhibition ELISA; competitor PT-biotin on coated asialofetuin; peptide 4.4 mg/mL
[10] = target: fetuin (Bos taurus (Bovine)) (UniProt P12763); assay: inhibition ELISA; competitor WGA-biotin on coated fetuin; peptide 4.4 mg/mL
[11] = target: fetuin (Bos taurus (Bovine)) (UniProt P12763); assay: inhibition ELISA; competitor PT-biotin on coated fetuin; peptide 4.4 mg/mL
[12] = target: pertussis toxin (Bordetella pertussis) (UniProt P04977)
[13] = target: fetuin (Bos taurus (Bovine)) (UniProt P12763); assay: inhibition ELISA; competitor WGA-biotin on coated fetuin
[14] = target: fetuin (Bos taurus (Bovine)) (UniProt P12763); assay: inhibition ELISA; competitor MAL-biotin on coated fetuin; peptide 1.0 mg/mL
[15] = target: fetuin (Bos taurus (Bovine)) (UniProt P12763); assay: inhibition ELISA; competitor SNA-biotin on coated fetuin; peptide 1.0 mg/mL
[16] = target: fetuin (Bos taurus (Bovine)) (UniProt P12763); assay: inhibition ELISA; competitor PT-biotin on coated fetuin; peptide 1.0 mg/mL
[17] = target: fetuin (Bos taurus (Bovine)) (UniProt P12763); assay: inhibition ELISA; competitor PT-biotin on coated fetuin
[18] = target: fetuin (Bos taurus (Bovine)) (UniProt P12763); assay: inhibition ELISA; competitor WGA-biotin on coated fetuin; peptide 1.0 mg/mL
[19] = target: αNeuAc(2-3)βGal(1-4)βGlcNAc-BSA (bovine) (UniProt P02769); assay: direct ELISA, 0.5 µg biotinylated peptide on BSA conjugate coated at 50 µg/mL
[20] = target: αNeuAc(2-6)βGal(1-4)βGlcNAc-BSA (bovine) (UniProt P02769); assay: as above
[21] = target: αNeuAc(2-3)βGal(1-3)βGlcNAc-BSA with (1-4) αFuc (bovine) (UniProt P02769); assay: as above
[22] = target: αNeuAc(2-3)βGal(1-4)βGlcNAc-BSA with (1-3) αFuc (bovine) (UniProt P02769); assay: as above
[23] = target: αNeuAc(2-3)βGal(1-3)βGlcNAc-BSA (bovine) (UniProt P02769); assay: as above
pertussis toxin [24] = target: T1, pertussis toxin (Bordetella pertussis, UniProt P04977); assay: cell-based or functional assay
pertussis toxin [25] = target: T1, pertussis toxin; assay: inhibition ELISA; fetuin against ACS2P1-biotin on immobilised PT
fetuin [26] = target: B1; assay: inhibition ELISA; competitor WGA-biotin on coated fetuin
fetuin [27] = target: B1; assay: inhibition ELISA; competitor ACS2P1-biotin on coated fetuin; concentration giving -50% (called IC50 in paragraph 228, n=2)
[28] = target: αNeuAc(2-6)βGal(1-4)βGlcNAc-BSA (bovine, UniProt P02769, conjugated carbohydrate αNeuAc(2-6)βGal(1-4)βGlcNAc-); assay: direct ELISA, 0.1 µg biotinylated peptide on BSA conjugate coated at 50 µg/mL
[29] = target: αNeuAc(2-3)βGal(1-4)βGlcNAc-BSA (bovine, UniProt P02769, conjugated carbohydrate αNeuAc(2-3)βGal(1-4)βGlcNAc-); assay: as above
[30] = target: αNeuAc(2-3)βGal(1-4)βGlcNAc-BSA with (1-3) αFuc (bovine, UniProt P02769, conjugated carbohydrate αNeuAc(2-3)βGal(1-4)[αFuc(1-3)]βGlcNAc-); assay: as above
[31] = target: αNeuAc(2-3)βGal(1-3)βGlcNAc-BSA (bovine, UniProt P02769, conjugated carbohydrate αNeuAc(2-3)βGal(1-3)βGlcNAc-); assay: as above
[32] = target: αNeuAc(2-3)βGal(1-3)βGlcNAc-BSA with (1-4) αFuc (bovine, UniProt P02769, conjugated carbohydrate αNeuAc(2-3)βGal(1-3)[αFuc(1-4)]βGlcNAc-); assay: as above
asialofetuin = target: T2, asialofetuin (Bos taurus (Bovine), UniProt P12763, glycans without sialic acid (asialo-)); assay: direct ELISA, 10 µg/ml biotinylated peptide on glycoprotein coated at 3 µg/ml
T2 sequence: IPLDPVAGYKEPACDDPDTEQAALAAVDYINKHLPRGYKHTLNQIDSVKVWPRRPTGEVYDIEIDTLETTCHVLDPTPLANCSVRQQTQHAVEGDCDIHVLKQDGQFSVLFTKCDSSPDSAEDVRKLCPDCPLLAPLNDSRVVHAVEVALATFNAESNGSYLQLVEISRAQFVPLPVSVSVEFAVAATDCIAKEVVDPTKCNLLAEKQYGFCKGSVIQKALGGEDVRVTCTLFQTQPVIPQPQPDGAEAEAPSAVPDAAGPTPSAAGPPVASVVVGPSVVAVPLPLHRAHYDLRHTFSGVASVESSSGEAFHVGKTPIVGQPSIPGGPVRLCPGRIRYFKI

asialoagalactofetuin = target: T3, asialoagalactofetuin (Bos taurus (Bovine), UniProt P12763, glycans without sialic acid and galactose (asialoagalacto-)); assay: as above
T3 sequence: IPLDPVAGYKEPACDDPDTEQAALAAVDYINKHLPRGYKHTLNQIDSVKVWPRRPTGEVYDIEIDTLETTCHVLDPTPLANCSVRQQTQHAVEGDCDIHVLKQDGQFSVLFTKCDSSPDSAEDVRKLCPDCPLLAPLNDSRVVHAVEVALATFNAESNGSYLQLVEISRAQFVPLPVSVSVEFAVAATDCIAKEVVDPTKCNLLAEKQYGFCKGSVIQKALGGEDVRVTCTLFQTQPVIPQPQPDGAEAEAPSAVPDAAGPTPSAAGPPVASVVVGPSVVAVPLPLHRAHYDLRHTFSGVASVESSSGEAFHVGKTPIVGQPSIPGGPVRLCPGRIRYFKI

Question: Which percent change in binding activity [1] does the source give for “SPYGRC (peptide; other documents disagree on this pair)” here?
Answer: The percent change in binding activity was -16%.

Question: And the % changes in binding activity [2]?
Answer: The % changes in binding activity was 7%.

Question: What about the percent change in binding activity [3] of the same molecule?
Answer: The percent change in binding activity was -2%.

Question: What about the % changes in binding activity [4] of the same molecule?
Answer: The % changes in binding activity was -2%.

Question: And the percent change in binding activity [5]?
Answer: The percent change in binding activity was -24%.

Question: And the percent change in binding activity [6]?
Answer: The percent change in binding activity was -54%.

Question: And the % changes in binding activity [7]?
Answer: The % changes in binding activity was -16%.

Question: What about the % changes in binding activity [8] of the same molecule?
Answer: Its % changes in binding activity is 34%.

Question: What about the percent change in binding activity [9] of the same molecule?
Answer: The percent change in binding activity was 7%.

Question: What about the percent change in binding activity [10] of the same molecule?
Answer: The percent change in binding activity was 7%.

Question: And the percent change in binding activity [11]?
Answer: Its percent change in binding activity is 34%.

Question: Which Maximal Inhibitory Concentration for Greater than 50% Inhibition (CHO cell clumping) [12] does the source give for SPYGRC (peptide) here?
Answer: The Maximal Inhibitory Concentration for Greater than 50% Inhibition (CHO cell clumping) was 480 pg/mL.

Question: What does the source list for WGA(62-73) (peptide)?
Answer: IC50 [13]: 3400 µM; percent change in binding activity [14]: -1%; percent change in binding activity [15]: -3%; percent change in binding activity [16]: -32%; IC50 [17]: 1500 µM; percent change in binding activity [18]: -9%

Question: With “SPYGRC-biotin (peptide; other documents disagree on this pair)” as the molecule, how does the % binding relative to fetuin [19] read?
Answer: Its % binding relative to fetuin is 120%.

Question: And the % binding relative to fetuin [20]?
Answer: The % binding relative to fetuin was 122%.

Question: And the % binding relative to fetuin [21]?
Answer: Its % binding relative to fetuin is 103%.

Question: What about the % binding relative to fetuin [22] of the same molecule?
Answer: The % binding relative to fetuin was 120%.

Question: And the % binding relative to fetuin [23]?
Answer: The % binding relative to fetuin was 97%.

Question: How did the “Maximal Inhibitory Concentration for Greater than 50% Inhibition (CHO cell clumping)” value (pertussis toxin [24]) turn out when STPGIVIPPQEQITQHGSPYGRC [S2P2] was run?
Answer: Its value is greater than 300 ng/mL.

Question: With B1 as the molecule, how does the IC50 (pertussis toxin [25]) read?
Answer: Its IC50 is 50 µM.

Question: For PKALFTQQGGAYGRC [S3P1], which “Maximal Inhibitory Concentration for Greater than 50% Inhibition (CHO cell clumping)” value (pertussis toxin [24]) is on record?
Answer: Its value is greater than 300 ng/mL.

Question: How did the “Maximal Inhibitory Concentration for Greater than 50% Inhibition (CHO cell clumping)” value (pertussis toxin [24]) turn out when RLLASTNSRLCAVFVRDG [S3P9a] was run?
Answer: Its value is greater than 300 ng/mL.

Question: How did the “Maximal Inhibitory Concentration for Greater than 50% Inhibition (CHO cell clumping)” value (pertussis toxin [24]) turn out when VAPGIVIPPKALFTQQGGAYGRC [S3P2] was run?
Answer: Its value is greater than 300 ng/mL.

Question: With PQEQITQHGSPYGRC (also: acetylated, site not given here) [ACS2P1] as the molecule, how does the IC50 (fetuin [26]) read?
Answer: The IC50 was 3250 µM.

Question: What about the IC50 (fetuin [27]) of the same molecule?
Answer: The IC50 was 4.1 µM.

B2: ACS2P1-biotin (peptide)
peptide: PQEQITQHGSPYGRC
modifications: biotinylated at the terminal proline; C-terminal -CO--NH2; acetylated (position not given)
Question: Which “% binding relative to fetuin” value [28] does the source give for B2 here?
Answer: The value was 94%.

Question: And the “% binding relative to fetuin” value [29]?
Answer: The value was 117%.

Question: What about the “% binding relative to fetuin” value [30] of the same molecule?
Answer: Its value is 84%.

Question: What about the “% binding relative to fetuin” value [31] of the same molecule?
Answer: Its value is 70%.

Question: What about the “% binding relative to fetuin” value [32] of the same molecule?
Answer: Its value is 84%.

Question: And the “% binding relative to fetuin” value (asialofetuin)?
Answer: The value was 45%.

Question: What about the “% binding relative to fetuin” value (asialoagalactofetuin) of the same molecule?
Answer: Its value is 93%.
